Assay results published in article PMC7078158, “Enzymes Catalyzing Crotonyl-CoA Conversion to Acetoacetyl-CoA During the Autotrophic CO2 Fixation in Metallosphaera sedula” (Frontiers in Microbiology, 2020).

What was measured:
Type in all cases: biochemical, Metallosphaera sedula
[1] = substrate: C[C@H](O)CC(=O)SCCNC(=O)CCNC(=O)[C@H](O)C(C)(C)COP(=O)(O)OP(=O)(O)OC[C@H]1O[C@@H](n2cnc3c(N)ncnc32)[C@H](O)[C@@H]1OP(=O)(O)O; test: Ccr-coupled dehydratase assay, UHPLC; conditions: dehydratase reaction, 100 mM Tris-HCl pH 7.8, 42 °C, 1 mM NADPH and NaHCO3 for coupling enzyme, apparent Km
From the text: Ccr-coupled dehydratase assay, UHPLC on crotonyl-CoA hydratase Msed_0336

[2] = substrate: C/C=C/C(=O)SCCNC(=O)CCNC(=O)[C@H](O)C(C)(C)COP(=O)(O)OP(=O)(O)OC[C@H]1O[C@@H](n2cnc3c(N)ncnc32)[C@H](O)[C@@H]1OP(=O)(O)O; test: UHPLC, 3-hydroxybutyryl-CoA formation; conditions: hydratase reaction, 100 mM Tris-HCl pH 7.8, 65 °C, apparent Km
From the text: UHPLC, 3-hydroxybutyryl-CoA formation on crotonyl-CoA hydratase Msed_0336

[3] = substrate: C=CC(=O)SCCNC(=O)CCNC(=O)[C@H](O)C(C)(C)COP(=O)(O)OP(=O)(O)OC[C@H]1O[C@@H](n2cnc3c(N)ncnc32)[C@H](O)[C@@H]1OP(=O)(O)O; test: UHPLC, 3-hydroxypropionyl-CoA formation; conditions: hydratase reaction, 100 mM Tris-HCl pH 7.8, 65 °C, apparent Km
From the text: UHPLC, 3-hydroxypropionyl-CoA formation on crotonyl-CoA hydratase Msed_0336

[4] = substrate: C=C(C)C(=O)SCCNC(=O)CCNC(=O)[C@H](O)C(C)(C)COP(=O)(O)OP(=O)(O)OC[C@H]1O[C@@H](n2cnc3c(N)ncnc32)[C@H](O)[C@@H]1OP(=O)(O)O; test: UHPLC, 3-hydroxy-2-methylpropionyl-CoA formation; conditions: hydratase reaction, 100 mM Tris-HCl pH 7.8, 65 °C, apparent Km
From the text: UHPLC, 3-hydroxy-2-methylpropionyl-CoA formation on crotonyl-CoA hydratase Msed_0336

[5] = substrate: CCCCC/C=C/C(=O)SCCNC(=O)CCNC(=O)[C@H](O)C(C)(C)COP(=O)(O)OP(=O)(O)OC[C@H]1O[C@@H](n2cnc3c(N)ncnc32)[C@H](O)[C@@H]1OP(=O)(O)O; test: UHPLC, 3-hydroxyoctanoyl-CoA formation; conditions: hydratase reaction, 100 mM Tris-HCl pH 7.8, 65 °C, apparent Km
From the text: UHPLC, 3-hydroxyoctanoyl-CoA formation on crotonyl-CoA hydratase Msed_0336

[6] = substrate: C/C=C/C(=O)SCCNC(=O)CCNC(=O)[C@H](O)C(C)(C)COP(=O)(O)OP(=O)(O)OC[C@H]1O[C@@H](n2cnc3c(N)ncnc32)[C@H](O)[C@@H]1OP(=O)(O)O; test: UHPLC, 3-hydroxybutyryl-CoA formation; conditions: hydratase reaction, 100 mM Tris-HCl pH 9, 65 °C, apparent Km
From the text: UHPLC, 3-hydroxybutyryl-CoA formation on crotonyl-CoA hydratase/(S)-3-hydroxybutyryl-CoA dehydrogenase Msed_0399

[7] = substrate: CCCCC/C=C/C(=O)SCCNC(=O)CCNC(=O)[C@H](O)C(C)(C)COP(=O)(O)OP(=O)(O)OC[C@H]1O[C@@H](n2cnc3c(N)ncnc32)[C@H](O)[C@@H]1OP(=O)(O)O; test: UHPLC, 3-hydroxyoctanoyl-CoA formation; conditions: hydratase reaction, 65 °C, apparent Km, buffer in general 100 mM Tris-HCl pH 7.8
From the text: UHPLC, 3-hydroxyoctanoyl-CoA formation on crotonyl-CoA hydratase/(S)-3-hydroxybutyryl-CoA dehydrogenase Msed_0399

[8] = substrate: C[C@H](O)CC(=O)SCCNC(=O)CCNC(=O)[C@H](O)C(C)(C)COP(=O)(O)OP(=O)(O)OC[C@H]1O[C@@H](n2cnc3c(N)ncnc32)[C@H](O)[C@@H]1OP(=O)(O)O; test: (S)-3-hydroxybutyryl-CoA dehydrogenase assay with NAD; conditions: dehydrogenase reaction with NAD, 65 °C, apparent Km
From the text: (S)-3-hydroxybutyryl-CoA dehydrogenase assay with NAD on crotonyl-CoA hydratase/(S)-3-hydroxybutyryl-CoA dehydrogenase Msed_0399

[9] = substrate: CC(C)(COP(=O)(O)OP(=O)(O)OC[C@H]1O[C@@H](n2cnc3c(N)ncnc32)[C@H](O)[C@@H]1OP(=O)(O)O)[C@@H](O)C(=O)NCCC(=O)NCCSC(=O)CCO; test: Ccr-coupled assay, acryloyl-CoA formation, UHPLC; conditions: dehydratase reaction, 100 mM MOPS/KOH pH 7.0, 42 °C, 1 mM NADPH and NaHCO3 for coupling enzyme, apparent Km
From the text: Ccr-coupled assay, acryloyl-CoA formation, UHPLC on crotonyl-CoA hydratase/(S)-3-hydroxybutyryl-CoA dehydrogenase Msed_0399

[10] = substrate: NC(=O)c1ccc[n+]([C@@H]2O[C@H](COP(=O)(O)OP(=O)(O)OC[C@H]3O[C@@H](n4cnc5c(N)ncnc54)[C@H](OP(=O)(O)O)[C@@H]3O)[C@@H](O)[C@H]2O)c1; test: (S)-3-hydroxybutyryl-CoA dehydrogenase assay; conditions: with (S)-3-hydroxybutyryl-CoA, 65 °C, apparent Km, varied: cofactor
From the text: (§1) (S)-3-hydroxybutyryl-CoA dehydrogenase assay on (S)-3-hydroxybutyryl-CoA dehydrogenase Msed_0389

[11] = substrate: C[C@H](O)CC(=O)SCCNC(=O)CCNC(=O)[C@H](O)C(C)(C)COP(=O)(O)OP(=O)(O)OC[C@H]1O[C@@H](n2cnc3c(N)ncnc32)[C@H](O)[C@@H]1OP(=O)(O)O; test: (S)-3-hydroxybutyryl-CoA dehydrogenase assay; conditions: 0.5 mM NAD, 65 °C, apparent Km
From the text: as §1

[12] = substrate: NC(=O)c1ccc[n+]([C@@H]2O[C@H](COP(=O)(O)OP(=O)(O)OC[C@H]3O[C@@H](n4cnc5c(N)ncnc54)[C@H](O)[C@@H]3O)[C@@H](O)[C@H]2O)c1; test: (S)-3-hydroxybutyryl-CoA dehydrogenase assay; conditions: with (S)-3-hydroxybutyryl-CoA, 65 °C, apparent Km, varied: cofactor
From the text: as §1

[13] = substrate: NC(=O)c1ccc[n+]([C@@H]2O[C@H](COP(=O)(O)OP(=O)(O)OC[C@H]3O[C@@H](n4cnc5c(N)ncnc54)[C@H](OP(=O)(O)O)[C@@H]3O)[C@@H](O)[C@H]2O)c1; test: (S)-3-hydroxybutyryl-CoA dehydrogenase assay; conditions: with (S)-3-hydroxybutyryl-CoA, 65 °C, apparent Km, varied: cofactor; remark: listed apart in the source
From the text: (§2) (S)-3-hydroxybutyryl-CoA dehydrogenase assay on (S)-3-hydroxybutyryl-CoA dehydrogenase Msed_1423

[14] = substrate: C[C@H](O)CC(=O)SCCNC(=O)CCNC(=O)[C@H](O)C(C)(C)COP(=O)(O)OP(=O)(O)OC[C@H]1O[C@@H](n2cnc3c(N)ncnc32)[C@H](O)[C@@H]1OP(=O)(O)O; test: (S)-3-hydroxybutyryl-CoA dehydrogenase assay; conditions: 0.5 mM NAD, 65 °C, apparent Km; remark: listed apart in the source
From the text: as §2

[15] = substrate: NC(=O)c1ccc[n+]([C@@H]2O[C@H](COP(=O)(O)OP(=O)(O)OC[C@H]3O[C@@H](n4cnc5c(N)ncnc54)[C@H](O)[C@@H]3O)[C@@H](O)[C@H]2O)c1; test: (S)-3-hydroxybutyryl-CoA dehydrogenase assay; conditions: with (S)-3-hydroxybutyryl-CoA, 65 °C, apparent Km, varied: cofactor; remark: listed apart in the source
From the text: as §2

B1: crotonyl-CoA hydratase Msed_0336 (Metallosphaera sedula DSM 5348) (protein)
chain: MKVLYEERDGISWITFNRPEKLNALDAESWKLLGDHVRRGDSSDSRAIVITGNGRAFSSGDDIGSMTSLNDQREAEDFFNALLYAVDGLIYTNKPVIGAVNGLAYGGGCEILLFMDVVISTRSARFSIPEGRLGLIPPMALSVGYNSIGRSVAWLAITGEEIDAMRAKEIGLVDIVGDDLNLELEKVMARISSMDQGSIKVIKAWLRKSREPIREAIRELSFMSLSTQAKERMKRFLSR
notes: full-length, N-terminal His10-tag (pET16b), recombinant in E. coli Rosetta 2 (DE3)
With B1 the Km [1] was 0.07 ± 0.02 mM, the Km [2] was 0.08 ± 0.01 mM and the Km [3] was 0.07 ± 0.005 mM. For the same protein, the Km [4] was 0.29 ± 0.05 mM and the Km [5] was 0.09 ± 0.01 mM.

B2: crotonyl-CoA hydratase/(S)-3-hydroxybutyryl-CoA dehydrogenase Msed_0399 (Metallosphaera sedula DSM 5348) (protein)
chain: MKVTVIGSGVMGHGIAELAAIAGNEVWMNDISTEILQQAMERIKWSLSKLRESGSLKEGVEQVLARIHPETDQAQALKGSDFVIEAVKEDLELKRTIFRNAEAHASPSAVLATNTSSLPISEIASVLKSPQRVVGMHFFNPPVLMPLVEIVRGKDTSDEVVKTTAEMAKSMNKETIVVKDVPGFFVNRVLLRIMEAGCYLVEKGIASIQEVDSSAIEELGFPMGVFLLADYTGLDIGYSVWKAVTARGFKAFPCSSTEKLVSQGKLGVKSGSGYYQYPSPGKFVRPTLPSTSKKLGRYLISPAVNEVSYLLREGIVGKDDAEKGCVLGLGLPKGILSYADEIGIDVVVNTLEEMRQTSGMDHYSPDPLLLSMVKEGKLGRKSGQGFHTYAHEEAKYSTIVVRVEPPLAWIVLNRPTRYNAINGDMIREINQALDSLEEREDVRVIAITGQGRVFSAGADVTEFGSLTPVKAMIASRKFHEVFMKIQFLTKPVIAVINGLALGGGMELALSADFRVASKTAEMGQPEINLGLIPGGGGTQRLSRLSGRKGLELVLTGRRVKAEEAYRLGIVEFLAEPEELESEVRKLANAIAEKSPLAVASAKLAYKLGEETHIWTGTSLEASLFGLLFSTKDFEEGVRAFLEKRKPNFRGE
notes: full-length, untagged, recombinant in E. coli Rosetta 2 (DE3); N-terminal dehydrogenase domain (~40 kDa), C-terminal enoyl-CoA hydratase domain (~20 kDa)
Protein B2 has a Km [6] of 0.97 ± 0.07 mM, a Km [7] of 0.08 ± 0.01 mM and a Km [8] of 0.12 ± 0.01 mM. It also gave a Km [9] of 0.06 ± 0.02 mM.

B3: (S)-3-hydroxybutyryl-CoA dehydrogenase Msed_0389 (Metallosphaera sedula DSM 5348) (protein)
chain: MKVFVIGSGVMGSGIGQVFAMAGHEVTLYDVKEEALKKAMEGIRWSLQKLQEKGSVKDVESVLSRIFTSRDLSEARDHLVIEAVFEDIKVKSDVLGRVSPLTDEIIASNTSSLPITELSRAVRNPERFLGMHFFNPPVLMKLVEVIRGDNTSEERFREALDIVKSLGKYPLPVRKDVFGFVVNRILFRLFTSACALLTQYTPHEIDYVAIKELGMPMGLIMLLDYTGLDVNYDISKEAERRGFPFKCDVLEGMVKSGKLGRKSGQGFYDWSKGKPEVKATSGPDPRELLRGAVEEAKWLISQGVVTREELETGLKLGLGMSRGILELGEILGVH
notes: as for B1
With B3 the Km [10] was 1.5 ± 0.3 mM, the Km [11] was 2.6 ± 1 µM and the Km [12] was 0.012 ± 0.002 mM.

B4: (S)-3-hydroxybutyryl-CoA dehydrogenase Msed_1423 (Metallosphaera sedula DSM 5348) (protein)
chain: MRIAVVGSGTMGHGIAEVAAMAGMEVKLIDISWDILNRAKERMYDSLKRLHERGTIRETPDTVMSRIEISVSYDVAKDVDFAIEAVPEILELKRKVFQELDRVVPKESILATNTSSIPISDIGEITSRKEKVIGMHFFNPPPLMKLVEVIPSKYTSEDVTRYTVELAKKMGKTPVRLRVEVPGFVSNRIFLRLLQEACREVESGEATIEEVDSSARNKLKLPMGIFELADYVGLDVAVDLWKVIVERGASDVKCSSYKERVDRKELGVKTGKGFYTYPAPGKYSKVSLPPESKVPPERIISLAVNEGAWLIENNIVNAEEIDTVMRLGFNFPKGLLEMADELGLDKILNALREIHSRGYEAYSPNPLLVKMVSQGQTGKSSGRGFYTYGKT
notes: as for B1
B4 gave a Km [13] of 5.1 ± 0.5 mM, a Km [14] of 5 ± 2 µM and a Km [15] of 0.03 ± 0.003 mM.
